# Measured values from the supplement of paper PMC10065799, “High-throughput profiling of sequence recognition by tyrosine kinases and SH2 domains using bacterial peptide display” (eLife, 2023).
# Biological target: Hck (UniProt P08631)
# Experiment: phosphorylation enrichment, bacterial display (enrichment ratio); higher = better substrate or ligand; peptides without Tyr show the background
# 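Throughout, for SH2 binding enrichment of the phosphorylated peptide, bacterial display: peptide library displayed on the E. coli surface as eCPX fusions, selected cells deep-sequenced, score is each peptide's frequency after selection divided by its frequency in the input.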
# 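Throughout, for phosphorylation enrichment, bacterial display: 11-residue human phosphosite peptides and single-mutation variants displayed on the E. coli surface, counted by deep sequencing, each peptide's frequency after selection divided by its frequency in the unselected input library; frequency after pTyr selection over input frequency; kinase dosed for 20-30% of maximal phosphorylation in three min.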
# Hck, sequence (P08631 whole entry, looked up): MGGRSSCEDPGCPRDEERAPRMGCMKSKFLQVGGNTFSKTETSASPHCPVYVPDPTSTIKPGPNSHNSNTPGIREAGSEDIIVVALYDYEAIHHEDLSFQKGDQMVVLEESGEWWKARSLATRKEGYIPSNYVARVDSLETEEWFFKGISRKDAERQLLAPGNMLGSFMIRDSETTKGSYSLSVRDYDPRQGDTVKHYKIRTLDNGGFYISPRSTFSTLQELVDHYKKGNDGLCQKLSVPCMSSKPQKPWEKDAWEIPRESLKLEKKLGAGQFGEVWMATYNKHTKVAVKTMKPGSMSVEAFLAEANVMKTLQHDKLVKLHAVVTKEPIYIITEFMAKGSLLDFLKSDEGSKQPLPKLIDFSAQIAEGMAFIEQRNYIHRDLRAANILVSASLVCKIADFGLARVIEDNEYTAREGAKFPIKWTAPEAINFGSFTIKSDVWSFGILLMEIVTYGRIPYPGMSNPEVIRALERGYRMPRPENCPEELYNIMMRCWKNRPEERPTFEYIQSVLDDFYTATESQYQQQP
row,Sequence,phosphorylation enrichment
1,SHMVDYQPFRK [TEX37_Y25_YF],0.732
2,PGLSSYGVPGS [FLNB_Y1530_A1534G],0.543
3,AKLNIYKRKVE [VWA3B_Y918],0.307
4,NPETCYQKLKK [TK2_Y190_R192K],0.583
5,LREKVYASLEA [RXRA_Y397],2.9
6,TSAEGYQDVRD [ABLIM1_Y439_P434T],0.691
7,VRTSKYRGGGG [HBA1_Y141_L137R],0.424
8,IKETHYMVDRC,0.461
9,AQVDTYCRHNY [HLA-DRB1_Y107_A103Q],0.523
10,GGGMFYPLDLF,0.499
11,LLRFLYFFVCS [SLC34A2_Y109_G106R],0.704
12,PGVNFYFQVSA,0.526
13,DSILVYQGKEQ [USH2A_Y1909],0.621
14,ADCRFYTFPQM [GAMT_Y223_A224T_YF],0.534
15,KFADVYVGICL [B3GALNT1_Y269_E266A],0.85
16,SSDKVYAHQMV [MLH1_Y379],0.458

# Biological target: Jak2 (UniProt O60674)
# Sequence (O60674 whole entry, looked up): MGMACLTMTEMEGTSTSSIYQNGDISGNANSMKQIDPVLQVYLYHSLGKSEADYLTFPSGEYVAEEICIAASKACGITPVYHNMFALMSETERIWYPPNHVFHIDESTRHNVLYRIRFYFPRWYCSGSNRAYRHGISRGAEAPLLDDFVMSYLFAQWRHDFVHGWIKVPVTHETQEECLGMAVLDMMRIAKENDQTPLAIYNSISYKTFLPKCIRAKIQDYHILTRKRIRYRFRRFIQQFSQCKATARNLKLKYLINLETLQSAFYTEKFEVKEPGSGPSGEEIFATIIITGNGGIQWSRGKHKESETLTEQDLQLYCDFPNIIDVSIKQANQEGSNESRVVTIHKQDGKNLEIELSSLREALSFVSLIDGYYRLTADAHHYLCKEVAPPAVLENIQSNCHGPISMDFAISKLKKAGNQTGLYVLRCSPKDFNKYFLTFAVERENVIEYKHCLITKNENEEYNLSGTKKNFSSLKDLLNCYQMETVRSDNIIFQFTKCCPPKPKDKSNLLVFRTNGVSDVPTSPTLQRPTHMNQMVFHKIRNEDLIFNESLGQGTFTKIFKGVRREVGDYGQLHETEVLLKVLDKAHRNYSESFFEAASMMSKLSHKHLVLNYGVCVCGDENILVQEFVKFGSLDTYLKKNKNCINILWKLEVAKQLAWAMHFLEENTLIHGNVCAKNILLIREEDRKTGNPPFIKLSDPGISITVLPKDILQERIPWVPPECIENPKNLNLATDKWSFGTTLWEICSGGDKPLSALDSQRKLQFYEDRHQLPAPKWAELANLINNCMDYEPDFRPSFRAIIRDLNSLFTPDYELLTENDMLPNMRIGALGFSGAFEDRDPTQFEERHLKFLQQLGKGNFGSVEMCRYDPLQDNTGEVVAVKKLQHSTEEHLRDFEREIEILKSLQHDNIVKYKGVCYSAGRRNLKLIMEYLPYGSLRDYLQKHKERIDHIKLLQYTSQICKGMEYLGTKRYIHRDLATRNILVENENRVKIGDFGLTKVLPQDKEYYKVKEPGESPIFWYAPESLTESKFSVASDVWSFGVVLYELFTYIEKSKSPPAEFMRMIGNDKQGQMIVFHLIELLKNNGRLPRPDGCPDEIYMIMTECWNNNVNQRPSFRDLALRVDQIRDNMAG
# Experiment: as above
row,Sequence,phosphorylation enrichment
1,SHMVDYQPFRK [TEX37_Y25_YF],1.03
2,PGLSSYGVPGS [FLNB_Y1530_A1534G],0.355
3,AKLNIYKRKVE [VWA3B_Y918],0.603
4,NPETCYQKLKK [TK2_Y190_R192K],0.921
5,LREKVYASLEA [RXRA_Y397],1.21
6,TSAEGYQDVRD [ABLIM1_Y439_P434T],1.16
7,VRTSKYRGGGG [HBA1_Y141_L137R],0.609
8,IKETHYMVDRC,0.654
9,AQVDTYCRHNY [HLA-DRB1_Y107_A103Q],0.764
10,GGGMFYPLDLF,0.891
11,LLRFLYFFVCS [SLC34A2_Y109_G106R],1.69
12,PGVNFYFQVSA,1.61
13,DSILVYQGKEQ [USH2A_Y1909],0.734
14,ADCRFYTFPQM [GAMT_Y223_A224T_YF],1.2
15,KFADVYVGICL [B3GALNT1_Y269_E266A],1.21
16,SSDKVYAHQMV [MLH1_Y379],0.431

# Biological target: MERTK (UniProt Q12866)
# Sequence (Q12866 whole entry, looked up): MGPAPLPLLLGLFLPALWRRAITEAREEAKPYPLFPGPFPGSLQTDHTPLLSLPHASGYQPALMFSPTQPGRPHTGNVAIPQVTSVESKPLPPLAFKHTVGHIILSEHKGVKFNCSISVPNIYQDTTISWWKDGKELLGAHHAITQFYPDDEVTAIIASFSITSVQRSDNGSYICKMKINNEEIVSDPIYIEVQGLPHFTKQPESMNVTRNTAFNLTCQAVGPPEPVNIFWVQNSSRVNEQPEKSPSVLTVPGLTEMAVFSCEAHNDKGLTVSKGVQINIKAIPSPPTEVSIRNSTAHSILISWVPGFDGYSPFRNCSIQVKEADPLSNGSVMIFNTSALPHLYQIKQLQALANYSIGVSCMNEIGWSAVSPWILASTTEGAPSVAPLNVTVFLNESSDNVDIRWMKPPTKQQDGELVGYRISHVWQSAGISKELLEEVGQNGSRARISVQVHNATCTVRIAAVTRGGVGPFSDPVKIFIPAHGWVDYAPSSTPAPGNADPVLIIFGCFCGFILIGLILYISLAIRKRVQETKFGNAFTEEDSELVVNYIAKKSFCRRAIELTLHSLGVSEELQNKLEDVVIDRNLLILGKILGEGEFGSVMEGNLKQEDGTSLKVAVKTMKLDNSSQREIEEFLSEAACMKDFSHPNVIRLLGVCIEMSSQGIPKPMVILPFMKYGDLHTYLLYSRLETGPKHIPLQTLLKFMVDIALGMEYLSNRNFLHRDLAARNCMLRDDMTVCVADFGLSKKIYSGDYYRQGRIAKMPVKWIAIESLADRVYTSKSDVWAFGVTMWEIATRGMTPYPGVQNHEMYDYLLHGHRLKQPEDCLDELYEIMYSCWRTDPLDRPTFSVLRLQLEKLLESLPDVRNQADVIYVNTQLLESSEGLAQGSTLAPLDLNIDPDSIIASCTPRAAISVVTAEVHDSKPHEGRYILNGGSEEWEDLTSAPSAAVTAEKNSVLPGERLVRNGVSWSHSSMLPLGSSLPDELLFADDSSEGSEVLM
# Experiment: as above
row,Sequence,phosphorylation enrichment
1,SHMVDYQPFRK [TEX37_Y25_YF],0.473
2,PGLSSYGVPGS [FLNB_Y1530_A1534G],0.622
3,AKLNIYKRKVE [VWA3B_Y918],0.448
4,NPETCYQKLKK [TK2_Y190_R192K],0.386
5,LREKVYASLEA [RXRA_Y397],2.22
6,TSAEGYQDVRD [ABLIM1_Y439_P434T],0.517
7,VRTSKYRGGGG [HBA1_Y141_L137R],0.648
8,IKETHYMVDRC,0.481
9,AQVDTYCRHNY [HLA-DRB1_Y107_A103Q],0.447
10,GGGMFYPLDLF,0.372
11,LLRFLYFFVCS [SLC34A2_Y109_G106R],0.744
12,PGVNFYFQVSA,0.445
13,DSILVYQGKEQ [USH2A_Y1909],0.333
14,ADCRFYTFPQM [GAMT_Y223_A224T_YF],5.08
15,KFADVYVGICL [B3GALNT1_Y269_E266A],0.522
16,SSDKVYAHQMV [MLH1_Y379],0.476

# Test system: c-Abl (mouse)
# Experiment: as above
row,Sequence,phosphorylation enrichment
1,SHMVDYQPFRK [TEX37_Y25_YF],0.967
2,PGLSSYGVPGS [FLNB_Y1530_A1534G],0.715
3,AKLNIYKRKVE [VWA3B_Y918],0.91
4,NPETCYQKLKK [TK2_Y190_R192K],0.765
5,LREKVYASLEA [RXRA_Y397],5.68
6,TSAEGYQDVRD [ABLIM1_Y439_P434T],0.766
7,VRTSKYRGGGG [HBA1_Y141_L137R],0.637
8,IKETHYMVDRC,0.581
9,AQVDTYCRHNY [HLA-DRB1_Y107_A103Q],0.693
10,GGGMFYPLDLF,0.627
11,LLRFLYFFVCS [SLC34A2_Y109_G106R],0.697
12,PGVNFYFQVSA,1.29
13,DSILVYQGKEQ [USH2A_Y1909],0.536
14,ADCRFYTFPQM [GAMT_Y223_A224T_YF],0.784
15,KFADVYVGICL [B3GALNT1_Y269_E266A],1.29
16,SSDKVYAHQMV [MLH1_Y379],0.537

# Test system: c-Src
# Experiment: as above
row,Sequence,phosphorylation enrichment
1,SHMVDYQPFRK [TEX37_Y25_YF],0.672
2,PGLSSYGVPGS [FLNB_Y1530_A1534G],0.454
3,AKLNIYKRKVE [VWA3B_Y918],0.4
4,NPETCYQKLKK [TK2_Y190_R192K],0.425
5,LREKVYASLEA [RXRA_Y397],6.94
6,TSAEGYQDVRD [ABLIM1_Y439_P434T],0.602
7,VRTSKYRGGGG [HBA1_Y141_L137R],0.542
8,IKETHYMVDRC,0.464
9,AQVDTYCRHNY [HLA-DRB1_Y107_A103Q],0.369
10,GGGMFYPLDLF,0.388
11,LLRFLYFFVCS [SLC34A2_Y109_G106R],0.587
12,PGVNFYFQVSA,0.523
13,DSILVYQGKEQ [USH2A_Y1909],0.515
14,ADCRFYTFPQM [GAMT_Y223_A224T_YF],1.24
15,KFADVYVGICL [B3GALNT1_Y269_E266A],1.12
16,SSDKVYAHQMV [MLH1_Y379],0.514

# Biological target: Grb2 SH2 (UniProt P62993)
# Sequence (P62993 whole entry, looked up): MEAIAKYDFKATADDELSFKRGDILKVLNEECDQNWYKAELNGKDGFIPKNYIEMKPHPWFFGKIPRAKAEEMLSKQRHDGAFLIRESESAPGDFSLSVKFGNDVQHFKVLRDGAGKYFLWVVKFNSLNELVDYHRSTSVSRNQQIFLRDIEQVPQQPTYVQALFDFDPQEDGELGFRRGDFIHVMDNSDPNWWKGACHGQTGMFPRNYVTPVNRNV
# Experiment: SH2 binding enrichment of the phosphorylated peptide, bacterial display (enrichment ratio); higher = better substrate or ligand; peptides without Tyr show the background
row,Sequence,SH2 binding enrichment
1,SHMVDYQPFRK [TEX37_Y25_YF],0.948
2,PGLSSYGVPGS [FLNB_Y1530_A1534G],0.934
3,AKLNIYKRKVE [VWA3B_Y918],0.854
4,NPETCYQKLKK [TK2_Y190_R192K],0.829
5,LREKVYASLEA [RXRA_Y397],0.665
6,TSAEGYQDVRD [ABLIM1_Y439_P434T],0.909
7,VRTSKYRGGGG [HBA1_Y141_L137R],0.602
8,IKETHYMVDRC,0.78
9,AQVDTYCRHNY [HLA-DRB1_Y107_A103Q],1.05
10,GGGMFYPLDLF,1.07
11,LLRFLYFFVCS [SLC34A2_Y109_G106R],2.1
12,PGVNFYFQVSA,0.682
13,DSILVYQGKEQ [USH2A_Y1909],0.707
14,ADCRFYTFPQM [GAMT_Y223_A224T_YF],1.25
15,KFADVYVGICL [B3GALNT1_Y269_E266A],0.731
16,SSDKVYAHQMV [MLH1_Y379],0.792

# Biological target: SHP2-C SH2
# Experiment: as above
row,Sequence,SH2 binding enrichment
1,SHMVDYQPFRK [TEX37_Y25_YF],1.06
2,PGLSSYGVPGS [FLNB_Y1530_A1534G],0.611
3,AKLNIYKRKVE [VWA3B_Y918],0.664
4,NPETCYQKLKK [TK2_Y190_R192K],0.814
5,LREKVYASLEA [RXRA_Y397],1.28
6,TSAEGYQDVRD [ABLIM1_Y439_P434T],0.779
7,VRTSKYRGGGG [HBA1_Y141_L137R],0.571
8,IKETHYMVDRC,0.623
9,AQVDTYCRHNY [HLA-DRB1_Y107_A103Q],0.707
10,GGGMFYPLDLF,0.749
11,LLRFLYFFVCS [SLC34A2_Y109_G106R],1.96
12,PGVNFYFQVSA,0.524
13,DSILVYQGKEQ [USH2A_Y1909],0.595
14,ADCRFYTFPQM [GAMT_Y223_A224T_YF],0.717
15,KFADVYVGICL [B3GALNT1_Y269_E266A],0.369
16,SSDKVYAHQMV [MLH1_Y379],0.594

# Biological target: c-Src SH2
# Experiment: as above
row,Sequence,SH2 binding enrichment
1,SHMVDYQPFRK [TEX37_Y25_YF],0.383
2,PGLSSYGVPGS [FLNB_Y1530_A1534G],0.534
3,AKLNIYKRKVE [VWA3B_Y918],0.517
4,NPETCYQKLKK [TK2_Y190_R192K],0.783
5,LREKVYASLEA [RXRA_Y397],0.75
6,TSAEGYQDVRD [ABLIM1_Y439_P434T],4.85
7,VRTSKYRGGGG [HBA1_Y141_L137R],0.353
8,IKETHYMVDRC,0.465
9,AQVDTYCRHNY [HLA-DRB1_Y107_A103Q],0.485
10,GGGMFYPLDLF,0.532
11,LLRFLYFFVCS [SLC34A2_Y109_G106R],1.73
12,PGVNFYFQVSA,0.446
13,DSILVYQGKEQ [USH2A_Y1909],0.493
14,ADCRFYTFPQM [GAMT_Y223_A224T_YF],0.513
15,KFADVYVGICL [B3GALNT1_Y269_E266A],0.423
16,SSDKVYAHQMV [MLH1_Y379],0.44
